Assay results reported in patent US20240132593A1 (published 2024).
“And” between values parts separate entries of the source, which are not always exact repeats. Identical values can stand only once. Like-named read-outs stand apart in the source and are kept apart here. Values belong to the binder of their own block, whether it stands above or below them.

How the values were obtained:
[1] = molecular target: T1, immunoglobulin gamma Fc receptor 1 (FcγR1) (biotinylated, AlphaLisa binding kit Perkin Elmer #AL3081C) (UniProt P12314 16-288, biotinylated (sites not given)); test: AlphaLISA FcγR1 binding assay
T1 chain: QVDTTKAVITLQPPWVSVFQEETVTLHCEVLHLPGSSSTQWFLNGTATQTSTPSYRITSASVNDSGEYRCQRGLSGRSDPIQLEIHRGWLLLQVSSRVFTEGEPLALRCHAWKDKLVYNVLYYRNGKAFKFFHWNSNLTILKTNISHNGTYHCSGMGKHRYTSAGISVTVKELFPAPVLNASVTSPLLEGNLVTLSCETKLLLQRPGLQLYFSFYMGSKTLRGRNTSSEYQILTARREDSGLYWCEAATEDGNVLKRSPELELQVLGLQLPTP

[2] = molecular target: T2, FcRn receptor (biotinylated, AlphaLisa binding kit Perkin Elmer #AL3095C) (UniProt P55899 24-297; P61769 21-119, biotinylated (sites not given)); test: AlphaLISA FcRn binding assay
[3] = molecular target: T3, FCGR1/CD64 (UniProt P12314 16-288, biotinylated (sites not given)); test: AlphaLISA FcγR1 binding assay
T3 chain: T1 chain

[4] = molecular target: FcRn (UniProt P55899 24-297; P61769 21-119, biotinylated (sites not given)); test: AlphaLISA FcRn binding assay
[5] = molecular target: FCGR2A/CD32A (167H); test: AlphaLISA FcγR2a binding assay
[6] = molecular target: FCGR2A/CD32A (167R); test: AlphaLISA FcγR2a binding assay
[7] = molecular target: T1, immunoglobulin gamma Fc receptor 1 …; test: AlphaLISA FcγR1 binding assay
[8] = molecular target: T2, FcRn receptor (biotinylated, AlphaLisa …); test: AlphaLISA FcRn binding assay; remark: listed apart in the source

EC50 [1]: 14.7 nM and 2.2 µg/mL
B1: Ab No. 420.1 (YTE) (antibody)
chain 1: MGWSCIILFLVATATGVHSQLQLQESGPGLVKPSETLSLTCIVSGGSISSSGYYWGWIRQPPGKGLEWIGSIFYSGNTHYNPSLKSRVTIPVDTSKNQFSLKLSSVTAADSAVYYCARRDILTGPFDYWGQGTLVTVSSAASTKGPSVFPLAPSSKSTSGGTAALGCLVKDYFPEPVTVSWNSGALTSGVHTFPAVLQSSGLYSLSSVVTVPSSSLGTQTYICNVNHKPSNTKVDKKVEPKSCDKTHTCPPCPAPELLGGPSVFLFPPKPKDTLYITREPEVTCVVVDVSHEDPEVKFNWYVDGVEVHNAKTKPREEQYNSTYRVVSVLTVLHQDWLNGKEYKCKVSNKALPAPIEKTISKAKGQPREPQVYTLPPSRDELTKNQVSLTCLVKGFYPSDIAVEWESNGQPENNYKTTPPVLDSDGSFFLYSKLTVDKSRWQQGNVFSCSVMHEALHNHYTQKSLSLSPGK
chain 2: not shown

EC50 [2]: 0.376 nM and 0.0565 µg/mL
B2: Ab No. 420.1(YTE) (antibody)
chain 1: B1 chain 1
chain 2: not shown

EC50 [3]: 3.6 nM and 0.534 µg/mL
EC50 [4]: 1.5 µg/mL
EC50 [5]: 2.1 µg/mL
EC50 [6]: 4.6 µg/mL
B3: VSTB174 (WT) (antibody)
chain 1: not shown
chain 2: DIQMTQSPSSLSASVGDRVTITCRASQSIDTRLNWYQQKPGKAPKLLIYSASSLQSGVPSRFSGSGSGTDFTLTISSLQPEDFATYYCQQSAYNPITFGQGTKVEIKRTVAAPSVFIFPPSDEQLKSGTASVVCLLNNFYPREAKVQWKVDNALQSGNSQESVTEQDSKDSTYSLSSTLTLSKADYEKHKVYACEVTHQGLSSPVTKSFNRGEC

The remaining lines, values behind:

B4: Ab No. 420.4(YTE) (antibody)
chain 1: MGWSCIILFLVATATGVHSQLQLQESGPGLVKPSETLSLTCIVSGGSISSSGYYWGWIRQPPGKGLEWIGSIFYSGNTHYNPSLKSRVTIPVDTSKNQFSLKLSSVTAADSAVYYCARRDILTGPFDYWGQGTLVTVSSAASTKGPSVFPLAPCSRSTSESTAALGCLVKDYFPEPVTVSWNSGALTSGVHTFPAVLQSSGLYSLSSVVTVPSSSLGTKTYTCNVDHKPSNTKVDKRVESKYGPPCPSCPAPEFLGGPSVFLFPPKPKDTLYITREPEVTCVVVDVSQEDPEVQFNWYVDGVEVHNAKTKPREEQFNSTYRVVSVLTVLHQDWLNGKEYKCKVSNKGLPSSIEKTISKAKGQPREPQVYTLPPSQEEMTKNQVSLTCLVKGFYPSDIAVEWESNGQPENNYKTTPPVLDSDGSFFLYSRLTVDKSRWQEGNVFSCSVMHEALHNHYTQKSLSLSLGK
chain 2: not shown
EC50 [2]: 0.486 nM and 0.0729 µg/mL

B5: Ab No. 420.4 (YTE) (antibody)
chain 1: B4 chain 1
chain 2: not shown
EC50 [1]: 139 nM and 20.8 µg/mL

B6: Ab No. 150.1 (YTE) (antibody)
light: not shown
heavy: QVQLQESGPGLVKPSETLSLTCTVSGGSISSYYWSWIRQPPGKGLEWIGYIYYSGSTNYNPSLKSRVTISVDTSKSQFSLKLSSVTAADTAVYYCARDIPAFAFDIWGQGTMVIVSSASTKGPSVFPLAPSSKSTSGGTAALGCLVKDYFPEPVTVSWNSGALTSGVHTFPAVLQSSGLYSLSSVVTVPSSSLGTQTYICNVNHKPSNTKVDKKVEPKSCDKTHTCPPCPAPELLGGPSVFLFPPKPKDTLYITREPEVTCVVVDVSHEDPEVKFNWYVDGVEVHNAKTKPREEQYNSTYRVVSVLTVLHQDWLNGKEYKCKVSNKALPAPIEKTISKAKGQPREPQVYTLPPSRDELTKNQVSLTCLVKGFYPSDIAVEWESNGQPENNYKTTPPVLDSDGSFFLYSKLTVDKSRWQQGNVFSCSVMHEALHNHYTQKSLSLSPGK
EC50 [5]: 18.3 µg/mL and 122 nM
EC50 [6]: 275 nM and 41.3 µg/mL

B7: Antibody No. 150.1 (antibody)
light: not shown
heavy: B6 heavy
EC50 [7]: 5.8 nM and 0.868 µg/mL
EC50 [8]: 0.142 µg/mL
